In general, stoichiometry N refers to a count of units in the complex or per binding partner.

The chains are these.
B1: N-terminal FLAG-GFP-tagged full-length Kir4.1 (natural protein, UniProt P78508 1-379, looked up)
chain: MTSVAKVYYSQTTQTESRPLMGPGIRRRRVLTKDGRSNVRMEHIADKRFLYLKDLWTTFIDMQWRYKLLLFSATFAGTWFLFGVVWYLVAVAHGDLLELDPPANHTPCVVQVHTLTGAFLFSLESQTTIGYGFRYISEECPLAIVLLIAQLVLTTILEIFITGTFLAKIARPKKRAETIRFSQHAVVASHNGKPCLMIRVANMRKSLLIGCQVTGKLLQTHQTKEGENIRLNQVNVTFQVDTASDSPFLILPLTFYHVVDETSPLKDLPLRSGEGDFELVLILSGTVESTSATCQVRTSYLPEEILWGYEFTPAISLSASGKYIADFSLFDQVVKVASPSGLRDSTVRYGDPEKLKLEESLREQAEKEGSALSVRISNV
notes: Kir4.1 (KCNJ10), full length; also called F-GFP-Kir4.1; Kir4.1-WT; source: in detergent-solubilized membrane fraction, and purified; not shown: FLAG, N-terminal, kept; GFP, N-terminal, kept
B2: full-length Kir4.1, N-terminal tags cleaved off (natural protein, UniProt P78508 1-379, looked up)
chain: B1 chain
notes: Kir4.1 (KCNJ10) inwardly rectifying potassium channel, full length; Purified as a tetramer that carries copurified endogenous LC8; also called KCNJ10; Kir4.1 WT; source: purified (FLAG resin, eluted by HRV 3C cleavage, Superose 6 SEC); not shown: FLAG, N-terminal, cleaved; GFP, N-terminal, cleaved
B3: full-length Kir4.1 protein with the ΔTQT deletion (natural protein, UniProt P78508 1-379, looked up)
chain: MTSVAKVYYSQTESRPLMGPGIRRRRVLTKDGRSNVRMEHIADKRFLYLKDLWTTFIDMQWRYKLLLFSATFAGTWFLFGVVWYLVAVAHGDLLELDPPANHTPCVVQVHTLTGAFLFSLESQTTIGYGFRYISEECPLAIVLLIAQLVLTTILEIFITGTFLAKIARPKKRAETIRFSQHAVVASHNGKPCLMIRVANMRKSLLIGCQVTGKLLQTHQTKEGENIRLNQVNVTFQVDTASDSPFLILPLTFYHVVDETSPLKDLPLRSGEGDFELVLILSGTVESTSATCQVRTSYLPEEILWGYEFTPAISLSASGKYIADFSLFDQVVKVASPSGLRDSTVRYGDPEKLKLEESLREQAEKEGSALSVRISNV
notes: Kir4.1 (KCNJ10), full length, with the three TQT residues (13-15) deleted; also called Kir4.1-ΔTQT; not shown: GFP, N-terminal, kept

This data set concerns the molecule itself. The data set can be described thus: SEC; purified Kir4.1 proteins on a Superose 6 column in glyco-diosgenin-containing buffer; pH 8.0 and pH 6.0 for the WT without tags; tetramer peak. In general terms: SEC sorts molecules by how far they enter the pores of the column.
As to B1, the “stoichiometry N” value turned out to be 4.
For B2 the value was 4.
The result for B3 reads 4.
